This is an account of results in patent US20240026443A1 (University of Washington, published 2024).

This experiment concerns the target T1, DddA (intact deaminase domain of the bacterial toxin-derived double stranded DNA cytosine deaminase) (Burkholderia cenocepacia (strain H111), UniProt P0DUH5 1290-1427, limits assumed).
T1 construct: also called double stranded DNA deaminase
T1 sequence: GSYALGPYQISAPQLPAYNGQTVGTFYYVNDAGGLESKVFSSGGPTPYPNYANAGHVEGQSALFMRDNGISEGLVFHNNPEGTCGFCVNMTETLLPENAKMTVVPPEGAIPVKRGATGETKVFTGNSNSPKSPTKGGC
As to the kind of experiment: X-ray crystal structure of the complex.

B1: double stranded DNA deaminase A immunity (DddAI) protein (other)
chain: MYADDFDGEIEIDEVDSLVEFLSRRPAFDANNFVLTFEESGFPQLNIFAKNDIAVVYYMDIGENFVSKGNSASGGTEKFYENKLGGEVDLSKDCVVSKEQMIEAAKQFFATKQRPEQLTWSEL
notes: Expressed inside P. aeruginosa from an arabinose-inducible promoter at the Tn7 attachment site; also called DddIA; DddA cognate immunity determinant
Turning to B1, the binding result was “binds”.
